Values of other authors in patent US20230192878A1, “METHODS, THERAPIES AND USES FOR TREATING CANCER” (PFIZER INC., priority 2020, published 2023).

Target: T1, BCMA (Homo sapiens, UniProt Q02223)
T1 sequence (Q02223 1-184): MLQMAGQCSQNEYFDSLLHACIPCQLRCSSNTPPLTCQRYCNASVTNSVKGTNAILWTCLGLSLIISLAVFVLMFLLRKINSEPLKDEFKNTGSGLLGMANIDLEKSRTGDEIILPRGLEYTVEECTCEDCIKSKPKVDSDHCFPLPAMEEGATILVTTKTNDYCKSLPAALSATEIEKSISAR
Conditions: binding to BCMA; read-out: affinity; cited from earlier work

| Substance | Kd |
| --- | --- |
| APRIL: a proliferation-inducing ligand, ligand of BCMA | 16 nM |
| BAFF: B-cell activation factor, ligand of BCMA | 1000 nM |
